The data set addresses von Willebrand factor (VWF) (Homo sapiens) (UniProt P04275). As to the kind of experiment: filter. The note with it: mAmCmGmAmAmCmUmGfCfCfCmUmC(6GLY)mGmAfCrGfCmAmCmAmGmAmCmGfUidT (6GLY = hexaethylene glycol linker); Bmax 60%; 2 mM CaCl2, 37 C.

For ACGAACUGCCCUCGACGCACAGACGU [DTRI-009], the Kd – broadly, the equilibrium constant for the complex coming apart – was 11 nM. This lies in the double-digit nanomolar range.
